Target: recombinant HDM2 17-125 (UniProt Q00987 17-125)
Assay: FP competition with FITC-SAH-p53-8; FIG. 2B; axis prints HDMX, legend says HDM2

IC50: 216 nM
B1: SAH-p53-8 (peptide)
peptide: QSQQTFXNLWRLLXQN
modifications: not fully specified; amino acids at positions S20 and P27 (p53 numbering) replaced with synthetic olefinic residues joined by an i, i+7 hydrocarbon staple; acetyl-capped N-terminus in the competition FP assay
